According to US20230265179A1 (TWIST BIOSCIENCE, published 2023):
Positions count from the first letter of the chain named.

T1: CD40L over-expressed on Expi293 cells (UniProt P29965 1-261, limits assumed)
T1 construct: whole, on cells; also called cytokine over-expressing Expi293 cells
T1 sequence (looked up): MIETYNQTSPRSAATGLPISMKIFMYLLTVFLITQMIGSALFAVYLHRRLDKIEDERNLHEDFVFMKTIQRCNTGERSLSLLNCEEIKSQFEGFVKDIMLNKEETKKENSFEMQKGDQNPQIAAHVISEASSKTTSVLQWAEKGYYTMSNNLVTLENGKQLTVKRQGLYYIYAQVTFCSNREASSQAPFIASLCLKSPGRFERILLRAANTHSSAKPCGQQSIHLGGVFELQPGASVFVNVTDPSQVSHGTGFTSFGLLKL

T2: CD40L (UniProt P29965 113-261, limits assumed)
T2 construct: SPR analyte
T2 sequence (looked up): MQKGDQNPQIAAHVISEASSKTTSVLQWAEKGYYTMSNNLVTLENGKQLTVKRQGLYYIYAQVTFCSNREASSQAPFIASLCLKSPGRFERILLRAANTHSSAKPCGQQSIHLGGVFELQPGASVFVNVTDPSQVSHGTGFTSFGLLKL

B1: CD40L-60 (VHH)
VHH: EVQLVESGGGLVQPGGSLRLSCAASGLNLSRLDMGWFRQAPGKEREFVAAVDNDDNTEYADSVKGRFTISADNSKNTAYLQMNSLKPEDTAVYYCASDHYDTDTKSDVYNWGQGTLVTVSS
B2: CD40L-45 (VHH)
VHH: EVQLVESGGGLVQPGGSLRLSCAASGLNLSRLDMGWFRQAPGKEREFVAASSWTGANTYYADSVKGRFTISADNSKNTAYLQMNSLKPEDTAVYYCASDHYDTDIKSDVYNWGQGTLVTVSS
B3: CD40L-187 (antibody, V domains shown)
VH: EVQLLESGGGLVQPGGSLRLSCAASGFDFSDYEMSWVRQAPGKGLEWVSSITSEGGSTYYADSVKGRFTISRDNSKNTLYLQMNSLRAEDTAVYYCAKPGKNFDYWGQGTLVTVSS
VL: DIQMTQSPSSLSASVGDRVTITCRASSSVSYMHWYQQKPGKAPKLLIYHTSRLQSGVPSRFSGSGSGTDFTLTISSLQPEDFATYYCSAFTHNSDVFGQGTKVEIK
notes: IgG2
B4: CD40L-189 (antibody, V domains shown)
VH: B3 VH with G100D, N102T
VL: DIQMTQSPSSLSASVGDRVTITCSGDTLGGKYAWWYQQKPGKAPKLLIYDNTNRPSGVPSRFSGSGSGTDFTLTISSLQPEDFATYYCQAWDNSAVIFGQGTKVEIK
notes: IgG2
B5: CD40L-194 (antibody, V domains shown)
VH: B3 VH with D28T, S30E, Y32T, S35D, G100D, K101V, N102L
VL: DIQMTQSPSSLSASVGDRVTITCRASQNINYYLNWYQQKPGKAPKLLIYQNDKRPSGVPSRFSGSGSGTDFTLTISSLQPEDFATYYCQQSYENPLTFGQGTKVEIK
notes: IgG2
B6: CD40L-195 (antibody, V domains shown)
VH: B3 VH with K101R, N102L
VL: DIQMTQSPSSLSASVGDRVTITCSGDNIGSIYASWYQQKPGKAPKLLIYQNDKRPSGVPSRFSGSGSGTDFTLTISSLQPEDFATYYCQQGYNSNDVDNVFGQGTKVEIK
notes: IgG2
B7: CD40L-197 (antibody, V domains shown)
VH: B3 VH with K101R, N102D
VL: DIQMTQSPSSLSASVGDRVTITCRTSQDIGNYLNWYQQKPGKAPKLLIYYDVNRPSGVPSRFSGSGSGTDFTLTISSLQPEDFATYYCQPSFYFPYTFGQGTKVEIK
notes: IgG2
B8: CD40L-201 (antibody, V domains shown)
VH: B3 VH with D28T, S30A, D31S, S35T, G100D, K101V, N102L
VL: DIQMTQSPSSLSASVGDRVTITCSGDNLRGYYASWYQQKPGKAPKLLIYGTSDLQSGVPSRFSGSGSGTDFTLTISSLQPEDFATYYCQAWDTNTVIFGQGTKVEIK
notes: IgG2
B9: CD40L-202 (antibody, V domains shown)
VH: B3 VH with D28T, S30A, D31S, S35T, G100D, K101V, N102L
VL: DIQMTQSPSSLSASVGDRVTITCRASQDIYQNLDWYQQKPGKAPKLLIYQDFKRPSGVPSRFSGSGSGTDFTLTISSLQPEDFATYYCQAWDNGAAVFGQGTKVEIK
notes: IgG2
B10: CD40L-203 (antibody, V domains shown)
VH: EVQLLESGGGLVQPGGSLRLSCAASGGYNFRDYMHWVRQAPGKGLEWVAEIRNKANNHATKYADSVKGRFTISRDNSKNTLYLQMNSLRAEDTAVYYCAKNLGQGFDYWGQGTLVTVSS
VL: DIQMTQSPSSLSASVGDRVTITCRASQSISSYVNWYQQKPGKAPKLLIYANTNGPSGVPSRFSGSGSGTDFTLTISSLQPEDFATYYCQSYDNSVRGSRVFGQGTKVEIK
notes: IgG2
B11: CD40L-103 (VHH)
VHH: EVQLVESGGGLVQPGGSLRLSCAASGRSFSSVYAMGWFRQAPGKEREFIAVIYWRDGSSLYADSVKGRFTISADNSKNTAYLQMNSLKPEDTAVYYCAAEPYGSGSSLISEYDWGQGTLVTVSS
B12: CD40L-74 (VHH)
VHH: EVQLVESGGGLVQPGGSLRLSCAASGRTFSSYYMGWFRQAPGKERELVAVIYTSDGSTYYADSVKGRFTISADNSKNTAYLQMNSLKPEDTAVYYCAAWLNGGNRWGQGTLVTVSS
B13: CD40L-82 (VHH)
VHH: B12 VHH with T28I, S31T, Y33F, L47G, V50T, S54G, D55N, S57Y, Y59L
B14: CD40L-106 (VHH)
VHH: EVQLVESGGGLVQPGGSLRLSCAASGLTFNDYAMGWFRQAPGKEREFVAGITNGGGRTSYADSVKGRFTISADNSKNTAYLQMNSLKPEDTAVYYCAADVGPTVKWGQGTLVTVSS
B15: CD40L-73 (VHH)
VHH: EVQLVESGGGLVQPGGSLRLSCAASGFTLGNYAMGWFRQAPGKEREFVASITSYGDTYYADSVKGRFTISADNSKNTAYLQMNSLKPEDTAVYYCARDGYTYGVDYWGQGTLVTVSS
B16: CD40L-76 (VHH)
VHH: EVQLVESGGGLVQPGGSLRLSCAASGRTFSTSAMGWFRQAPGKEREWVATIYSRSGGGTAYADSVKGRFTISADNSKNTAYLQMNSLKPEDTAVYYCAKEGYDWGDYVMDYWGQGTLVTVSS
B17: CD40L-80 (VHH)
VHH: EVQLVESGGGLVQPGGSLRLSCAASGFTFDDYDMGWFRQAPGKERELVASITSGGSTNYADSVKGRFTISADNSKNTAYLQMNSLKPEDTAVYYCAIPHGIDLYTFDWGQGTLVTVSS
B18: CD40L-84 (VHH)
VHH: EVQLVESGGGLVQPGGSLRLSCAASGRISNINIMGWFRQAPGKEREFVAGISQSGGSTAYADSVKGRFTISADNSKNTAYLQMNSLKPEDTAVYYCSRDEKLGPYYFDYWGQGTLVTVSS
B19: CD40L-91 (VHH)
VHH: EVQLVESGGGLVQPGGSLRLSCAASGGTFSSFPMGWFRQAPGKEREFVAAISWSEDNTYYADSVKGRFTISADNSKNTAYLQMNSLKPEDTAVYYCASRLAFCGRDCYLPTDWGQGTLVTVSS
B20: CD40L-96 (VHH)
VHH: B19 VHH with S31A, F47W, S52T, W53S, E55G, N57S, T58I, A97T, D112T
B21: CD40L-98 (VHH)
VHH: EVQLVESGGGLVQPGGSLRLSCAASGITFKRYDMGWFRQAPGKEREVVAVIYTSDGSTYYADSVKGRFTISADNSKNTAYLQMNSLKPEDTAVYYCAADRDRYRDGMGPMTTTDFRWGQGTLVTVSS
B22: CD40L-99 (VHH)
VHH: EVQLVESGGGLVQPGGSLRLSCAASGFTPDDYAMGWFRQAPGKEREFVADIMPYGSTEYADSVKGRFTISADNSKNTAYLQMNSLKPEDTAVYYCARRDAGIDFYYMDVWGQGTLVTVSS
B23: CD40L-102 (VHH)
VHH: EVQLVESGGGLVQPGGSLRLSCAASGLTFSRYEMGWFRQAPGKEREFVAAVTEDGSIYADSVKGRFTISADNSKNTAYLQMNSLKPEDTAVYYCAAEIGYYSGGTYFSSEAWGQGTLVTVSS
B24: CD40L-105 (VHH)
VHH: EVQLVESGGGLVQPGGSLRLSCAASGITFSSRTMGWFRQAPGKEREFVAAIRSSGGLFYADSVKGRFTISADNSKNTAYLQMNSLKPEDTAVYYCAAQDRRHGDYYTFDYHWGQGTLVTVSS
B25: CD40L-111 (VHH)
VHH: EVQLVESGGGLVQPGGSLRLSCAASGDTSEINDMGWFRQAPGKEREFVAAIYPSGRNAYYADSVKGRFTISADNSKNTAYLQMNSLKPEDTAVYYCAIPHGIAGRITWGQGTLVTVSS
B26: CD40L-114 (VHH)
VHH: EVQLVESGGGLVQPGGSLRLSCAASGRTFSPYIMGWFRQAPGKEREFVAEIGWRDTTLYADSVKGRFTISADNSKNTAYLQMNSLKPEDTAVYYCAARRGGDYLPTDWGQGTLVTVSS
B27: CD40L-115 (VHH)
VHH: EVQLVESGGGLVQPGGSLRLSCAASGRTFSRYEMGWFRQAPGKEREFVAAVTEDGSTYYADSVKGRFTISADNSKNTAYLQMNSLKPEDTAVYYCAIAHGSSTYNWGQGTLVTVSS
B28: CD40L-122 (VHH)
VHH: EVQLVESGGGLVQPGGSLRLSCAASGLLFSSYDMGWFRQAPGKEREFVAAISWSTGSGDDTYYADSVKGRFTISADNSKNTAYLQMNSLKPEDTAVYYCASDHYDTDTKSDVYNWGQGTLVTVSS
B29: CD40L-125 (VHH)
VHH: EVQLVESGGGLVQPGGSLRLSCAASGFTFDYYTMGWFRQAPGKEREFVAVIYSSDGSTLYADSVKGRFTISADNSKNTAYLQMNSLKPEDTAVYYCAIDEGMDYDGNFYDWGQGTLVTVSS

What follows are binders tested against T1, CD40L over-expressed on Expi293 cells (assay: flow cytometry, 100 nM antibody, CD40L-Expi293 vs parent Expi293 cells;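 note: ratio is the mean fluorescence intensity on CD40L-overexpressing Expi293 cells divided by the mean fluorescence intensity on parental Expi293 cells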).
Protocol: All incubations and washes were in buffer containing PBS+1% BSA. MFI Ratio is defined by the mean fluorescence intensity (MFI) of the cytokine over-expressing Expi293 cell over the Expi293 parent cell. […] EC50 was calculated in GraphPad Prism.

Binder | 100 nM FACS (MFI Ratio)
B1 | 50.4 ratio
B2 | 93.9 ratio
B3 | 2.3 ratio
B4 | 4.7 ratio
B5 | 7.3 ratio
B6 | 16.8 ratio
B7 | 3.6 ratio
B8 | 6.9 ratio
B9 | 14.2 ratio
B10 | 6.7 ratio
B11 | 3.6 ratio
B12 | 8.7 ratio
B13 | 18.6 ratio
B14 | 2.7 ratio
B15 | 10.9 ratio
B16 | 9.6 ratio
B17 | 4.6 ratio
B18 | 12.7 ratio
B19 | 4.3 ratio
B20 | 3.7 ratio
B21 | 6.4 ratio
B22 | 3.1 ratio
B23 | 1.8 ratio
B24 | 4.5 ratio
B25 | 9.7 ratio
B26 | 7.3 ratio
B27 | 16.8 ratio
B28 | 14.2 ratio
B29 | 6.6 ratio

The binders below were run against T2, CD40L (assay: SPR (Carterra LSA), antibody amine-coupled, 1:1 model).
Protocol: SPR experiments were performed on a Carterra LSA SPR biosensor equipped with a HC30M chip at 25° C. in HBS-TE. Antibodies were diluted to 10 μg/mL and amine-coupled to the sensor chip by EDC/NHS activation, followed by ethanolamine HCl quenching. Increasing concentrations of analyte were flowed over the sensor chip in HBS-TE with 0.5 mg/mL BSA with 5-minute association and 15-minute dissociation. Following each injection cycle the surface was regenerated with 2× 30-second injections of IgG elution buffer (Thermo). Data were analyzed in Carterra's Kinetics Tool software with 1:1 binding model.

Binder | Kd | koff | kon
B1 | 0.118 nM | 0.000108 s⁻¹ | 915000 M⁻¹ s⁻¹
B2 | 0.453 nM | 0.000106 s⁻¹ | 234000 M⁻¹ s⁻¹
